This is an account of results in paper PMC3498381, “Isolated Toll-like Receptor Transmembrane Domains Are Capable of Oligomerization” (PLoS ONE, 2012).

Residue numbers refer to the chain shown, from its start. Names may count otherwise. “And” between values parts separate entries of the source, which are not always exact repeats. Equal entries are not always repeated. No end group written: not given here.

For one test, the target named is TMD5 D150A. Briefly: homotypic ToxR assay. To be noted: higher signal = more homotypic TMD association; parent: est. 1.0; read off a plot.
In test [1] the target is synthetic TLR6 transmembrane domain peptide, coumarin-labelled (human). Briefly: AUC; sedimentation equilibrium; labelled peptide in density matched C14-betaine micelles (10 mM), 100 mM HEPES pH 7.4; FITC-TLR2 read at 495 nm, coumarin-TLR6 at 400 nm; for the heterotypic run FITC-TLR2 with 2 equiv. of coumarin-TLR6; global fit.
The target in test [2] is synthetic TLR1 transmembrane domain peptide, coumarin-labelled (human). Briefly: FRET or BRET; coumarin-TLR1 or -TLR6 peptide (donor) fixed at 20 nM, fluorescein-TLR2 peptide (acceptor) titrated 0-1500 nM; 1 mM C14-betaine micelles, 100 mM HEPES pH 7.4; excitation 415 nm; Hill equation. In general terms: In BRET a luciferase serves as donor, and the signal depends on an acceptor being close.

Test [3] deals with synthetic TLR6 transmembrane domain peptide, coumarin-labelled (human). Described as above.
For test [4], the target named is synthetic TLR2 transmembrane domain peptide, fluorescein-labelled (human). Briefly: AUC; sedimentation equilibrium; labelled peptide in density matched C14-betaine micelles (10 mM), 100 mM HEPES pH 7.4; FITC-TLR2 read at 495 nm, coumarin-TLR6 at 400 nm; for the heterotypic run FITC-TLR2 with 2 equiv. of coumarin-TLR6; global fit.
In test [5] the test system is homotypic TMD-TMD interaction (ToxR / ctx promoter / β-galactosidase reporter in FHK12 E. coli). Briefly: Homotypic ToxR reporter assay (β-galactosidase). The class given is cell-based. The note with it: homotypic ToxR assay, compared with wild type TLR2 TMD (Fig. 7A). How it is done: . Various plasmid constructs for this assay make it possible to monitor both homotypic and heterotypic interactions that are driven by TMD-TMD association (Fig. S1).
We first investigated homotypic interactions because the majority of the TLR family members function as homodimers. […] This ΔTM construct consists of the same maltose binding protein and ToxR domain, but lacks a TMD for proper membrane insertion (Fig. S2). Statistical analysis using the Tukey-Kramer test was performed to analyze any significant differences between all possible pairs of average interaction potentials (Table S2). […] Among the TLRs, no discernable differences in grouping based on statistical analysis at p = 0.05 were indicated as all receptors belonged to multiple groups, except for TLR1, which with the lowest interaction potential among the family of receptors only existed in one group (Table S1).
Figure 2 Toll-like Receptor Transmembrane Domain Homotypic Interactions. (A) The ToxR assay was used to study homotypic interactions of the TLR TMDs. A chimeric protein expressing the TMD of interest was monitored through β-galactosidase activity. In all cases, we saw that the TLRs have interaction potential solely from TMD-TMD interactions. Each TLR TMD interaction measurement analysis was performed on 3 technical replicates with >6 measurements for each replicate. Error bars depict the standard error of the mean (n – Table S1). Western blots staining for MBP were performed to monitor expression levels of the constructs – (B) chimeric maltose binding protein expression, (C) endogenous maltose binding protein expression. All samples were normalized to the GpA signal and expression levels.
Briefly, the ToxR plasmids containing the TMD of interest (200 ng) were transformed into chemically competent FHK12 E. coli (200 µL) by incubating on ice for 30 min, heat shock at 42°C for 90 s, incubation on ice for 2 min, and addition of SOC media (800 µL) followed by incubation with shaking for 1 h at 37°C. This transformation mixture (50 µL) was then spread on LB agar plates containing cholaramphenicol (30 µg/mL) and ampicillin (100 µg/mL) and grown overnight at 37°C. Single colonies were selected from the plates in triplicate and added to 5 mL of LB media containing cholaramphenicol (30 µg/mL), ampicillin (100 µg/mL), and arabinose (0.0025%). These cultures were incubated overnight (16–20 h) with shaking at 37°C. The β-galactosidase activity was monitored using a Beckman Coulter DTX 880 plate-reader. First 5 µL of each culture was plated >6 times in a clear 96-well flat bottom culture plate (Sarstedt) containing 100 µL of Z-buffer/chloroform (1% β-mercaptoethanol, 10% chloroform, 89% Z buffer: […], 10 mM potassium chloride, 1 mM magnesium sulfate, pH 7.0). The cell densities of each well were recorded by measuring the OD595. Bacteria were lysed by the addition of 50 µL Z-buffer/SDS (1.6% sodium dodecyl sulfate w/v in Z-buffer) and shaking at 28°C for 10 min. Enzymatic activity was measured by adding 50 µL of Z-buffer/ortho-Nitrophenyl-β-[…] (ONPG) (0.4% ONPG w/v in Z-buffer) and monitoring the reaction at 405 nm for a period of 20 min at 30 s intervals. Miller units were calculated using the equation: [drawing 1]
Western blotting was performed with antiserum recognizing the maltose-binding protein moiety of the constructs (Abcam). Data were normalized to GpA Miller Units and protein expression levels using ImageJ (NIH) as reported previously.
On the technique in general: Reporter assays use an easily measured gene product as a stand-in for the process of interest.

The test system of test [6] is heterotypic interactions of the TLR2 TMD. Kind of test: Heterotypic ToxR assay of TLR2 point mutants. Format: cell-based, E. coli. The note with it: compared with native TLR2 TMD (Fig. 7B). The text has this: To investigate if these residues were involved in the homotypic or heterotypic interactions we performed site-directed mutagenesis at key positions in the TLR2 TMD – Gly593Val, Ala597Val, and Cys609Ile – and tested these mutants in both homotypic and heterotypic ToxR assays.
Figure 7 Toll-like Receptor 2 Interaction Interface Studied by Mutagenesis. TLR2 residues were mutated to study effects on homotypic and heterotypic interactions using the ToxR assay. These mutations were at positions identified in the sequence as likely interaction locations. (A) Homotypic interactions of point mutations show no difference in interaction potential from wild-type TLR2 TMD. (B) Heterotypic interactions of point mutations show the potential importance of both the Ala597 and Cys609 positions for heterotypic interactions. […]
For heterotypic interactions one plasmid containing a functional ToxR domain (200 ng) and a second plasmid containing a non-functional ToxR* domain (200 ng) were co-transformed into chemically competent FHK12 E. coli (400 µL) by incubating on ice for 30 min, heat shock at 42°C for 90 s, incubation on ice for 2 min, and addition of SOC media (1600 µL) followed by incubation with shaking for 1 h at 37°C. […] Analysis of activity was monitored as described in homotypic ToxR assays. […]

Another test deals with TLR2 G593A. Kind of test: homotypic ToxR assay. To be noted: higher signal = more homotypic TMD association; parent: est. 1.0; read off a plot.
The target in test [7] is T1, TLR2 transmembrane domain A597V (ToxR chimera), O60603.
T1 chain: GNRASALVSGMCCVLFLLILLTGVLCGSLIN
Kind of test: homotypic ToxR assay. The note with it: chain shown with the change; higher signal = more homotypic TMD association; parent: est. 1.0; read off a plot.

Test [8] addresses T2, TLR1 transmembrane domain (ToxR chimera).
T2 chain: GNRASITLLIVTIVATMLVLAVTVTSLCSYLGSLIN
Kind of test: heterotypic ToxR assay. To be noted: chain shown with the change; competitor TLR1* (nonfunctional ToxR* chimera); PolyLeu* = 1.0; lower signal = more ToxR inhibition = more interaction; parent: est. 0.47; read off a plot.

The target of test [9] is T3, TLR10 transmembrane domain (ToxR chimera).
T3 chain: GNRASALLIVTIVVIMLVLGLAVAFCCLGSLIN
Briefly: heterotypic ToxR assay. To be noted: chain shown with the change; competitor TLR10* (nonfunctional ToxR* chimera); PolyLeu* = 1.0; lower signal = more ToxR inhibition = more interaction; parent: est. 0.41; read off a plot.

The target of test [10] is T4, TLR2 transmembrane domain (ToxR chimera).
T4 chain: T1 chain with V14A
Briefly: heterotypic ToxR assay. To be noted: chain shown with the change; competitor TLR2* (nonfunctional ToxR* chimera); PolyLeu* = 1.0; lower signal = more ToxR inhibition = more interaction; parent: est. 0.42; read off a plot.

The target in test [11] is T5, TLR4 transmembrane domain (ToxR chimera).
T5 chain: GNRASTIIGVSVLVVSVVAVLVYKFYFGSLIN
Briefly: heterotypic ToxR assay. The note with it: chain shown with the change; competitor TLR4* (nonfunctional ToxR* chimera); PolyLeu* = 1.0; lower signal = more ToxR inhibition = more interaction; parent: est. 0.90; read off a plot.

Test [12] concerns the target T6, TLR5 transmembrane domain (ToxR chimera).
T6 chain: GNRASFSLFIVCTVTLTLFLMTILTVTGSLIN
Kind of test: heterotypic ToxR assay. To be noted: chain shown with the change; competitor TLR5* (nonfunctional ToxR* chimera); PolyLeu* = 1.0; lower signal = more ToxR inhibition = more interaction; parent: est. 0.53; read off a plot.

The target in test [13] is T7, TLR6 transmembrane domain (ToxR chimera).
T7 chain: T2 chain with V14G, S29I
Briefly: heterotypic ToxR assay. To be noted: chain shown with the change; competitor TLR6* (nonfunctional ToxR* chimera); PolyLeu* = 1.0; lower signal = more ToxR inhibition = more interaction; parent: est. 0.24; read off a plot.

Test [14] has as its target T8, TLR2 transmembrane domain C609I (ToxR chimera), O60603.
T8 chain: T1 chain with V14A, C26I
Briefly: homotypic ToxR assay. The note with it: chain shown with the change; higher signal = more homotypic TMD association; parent: est. 1.0; read off a plot.

Take “TMD5 from latent membrane protein 1 (ToxR* chimera) D150A”: the response (normalized Miller units) with TMD5 D150A stood at 0.59.

By stoichiometry N is commonly meant the number of molecules, sites or subunits per partner or assembly. With “synthetic TLR6 transmembrane domain peptide, coumarin-labelled”, the stoichiometry N in test [1] turned out to be 2.

As usually defined, the Kd is a measure of binding affinity in units of concentration. Take “synthetic TLR2 transmembrane domain peptide, fluorescein-labelled”: the Kd in test [2] stood at 231 nM; in [3], 286 nM. For the same molecule, in test [4], the stoichiometry N was 2 and 4.

Regarding “TLR2 A597V: TLR2 TMD ToxR construct with point mutation Ala597Val (GNRASALVSGMCCVLFLLILLTGVLCGSLIN; cysteine pairing not given here; also: fused to ToxR activation domain and maltose binding protein, ends not given here)”, the “Effect of TLR2 point mutation on homotypic interaction” value in [5] is recorded as “no mutation demonstrated significant difference from the wild type TLR2 TMD”. In test [6], the “Effect of TLR2 point mutation on heterotypic interactions” value is recorded as “capable of reducing the ToxR inhibition demonstrated by the native TLR2 TMD”.

For “TLR2 C609I: TLR2 TMD ToxR construct with point mutation Cys609Ile (GNRASALVSGMCCALFLLILLTGVLIGSLIN; cysteine pairing not given here; also: fused to ToxR activation domain and maltose binding protein, ends not given here)”, in test [5], the “Effect of TLR2 point mutation on homotypic interaction” value is on record as “no mutation demonstrated significant difference from the wild type TLR2 TMD”. In addition, the “Effect of TLR2 point mutation on heterotypic interactions” value in [6] was “capable of reducing the ToxR inhibition demonstrated by the native TLR2 TMD”.

In the case of “TLR2 transmembrane domain (ToxR chimera) G593A”, the response (normalized Miller units) in the test with TLR2 G593A turned out to be 1.1.

B1: TLR2 transmembrane domain (ToxR chimera) A597V (peptide)
chain: T1 chain
Take B1: the response (normalized Miller units) came out at 1 in [7]; 1 in test [8]; 1.2 in test [9]; 0.8 in [10]; 1.1 in test [11]; 1 in test [12]. In addition, in test [13], the response (normalized Miller units) was 0.82.

B2: TLR2 transmembrane domain (ToxR chimera) C609I (peptide)
chain: T1 chain with V14A, C26I
For B2, the response (normalized Miller units) turned out to be 1.1 in test [14]; 0.78 in [8]; 0.63 in test [9]; 0.55 in test [10]; 0.88 in [11]; 0.81 in test [12]. Moreover, the response (normalized Miller units) in [13] amounted to 0.82.
